Source: the domain aggregation screens of Martell et al. (2025)

Assay: soluble fraction after stress (log2 fold change); higher = more stays soluble; pooled small domains, quantitative proteomics
Details: stress: 50 degC
Procedure, shortened: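 The measure of aggregation propensity here is the base-two logarithm of the fold change in the soluble amount of each protein after stress. A higher value means more of that protein stays in solution. Stress was applied at 50°C to pooled libraries of small protein domains, read out by high-throughput quantitative proteomics.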

Row | Sequence | soluble fraction (log2)
1 | HMTADIRFLNSRKFYIYKVEKGETLFSISQKFNIPQEEIIQFNKDINQQGLKAKTKLWVPAYSWL | -3.38
2 | HMTAGTGIAYSEFRSKVQEGQVKDVAIAPDRITGTLSSGQKFSTVPVNDPGLPKMLDDFNVKYSGQA | 0.104
3 | HMTAIWKTITATLTHDIATGKYAPGDRLPTEAQLAARFGVNRHTVRRAISDMNESGLTYSRRGAGVFVAQ | -2.59
4 | HMTALAVGDRVKMDKSATIYGTMRKFAAWVYATKLYVRGIDGNRVVVSTLKSGAITGAVDKKHLTK | -1.12
5 | HMTAMDTQQKKLIIMYHDIHRLRNVEHFTIQRIADHLLLNFRTVKKFLEMTQEEFDKFSENRW | -3.01
6 | HMTANPSTEEIMARVEAIPLPIKRLPPGQIVQAQTVAATVLRSNPGLDLAKAWKLAYATVTGQE | -0.0416
7 | HMTANTQVENIRLELQRYMDEHGISQVTVARGIGKTHPVISQFLNNKYPGDVEEVARAIESWLTKQHEKAA | -0.0876
8 | HMTAPELGIRQDGNTLVIFWPSSVTGYVLKSADAVDTPPASWTSVTHTTVGDEHRAEITPTGNSRFFRLV | -0.267
9 | HMTAPQAQDYARVPDVLGLDMRESAQALRLDGFEMNAQGDGLAARQSPIGGSYAPEGTQVLVTFEM | 0.102
10 | HMTAQLAAQERTHALDMFMGGYKFSSKPAENGVRAEFEKKNFTLEDGKFLGGDEFMKSLMENDDYKGAFV | 0.375
11 | HMTASKSTVSTPEKVVYHIVFPKETKYSIAKKYGITIEELEKRNPEIIPSLSVGQKLVIKGTAPK | -0.00327
12 | HMTATDRQLQLIAYTAARLMAEQGIADFNAAKRKAIQTLGLPNNAKLPGNADVEAQLRAYQRIF | -0.133
13 | HMTATKDLPFSTFITEVEKGNITSVDIKGNQIEGTFSNGAKFKTYSPNYPNLVERLADKGVAISAGPS | 0.047
14 | HMTAVPADVETVTGFTALDRAGLDTLLARLGLAMDLEDLSFLQAYFRDTERRDPTLTEIRVVDTYWSDH | -1.38
15 | HMTDAEQHEALLFKQVVDGLPQTLRDTFVLSRHAGMTYAEISAHTGTPIKTVESRMAKALELIAQRMR | -0.67
16 | HMTDDALIGKTAQVTVAIKPGSVGQITARVGDERVERLARASADAEIAAGSLVTIKSIAGDSVIVAPE | 0.144
17 | HMTDDPGLSRAENRELQTLLLDRGHDIGQPDGLIGAKTRAAIRAEQSRLNMPVNGRGGQKLLRALRL | 0.372
18 | HMTDFLKTRIDTLGLSTRTLNALSEANVRTIGGIARKKQEDLLEIDGIGEKGIQEIKKMLGEYGITL | -0.126
19 | HMTDFSDLSFKYNSEEKDVLNSINLKINGGEMTSLVGHSGAGKTTILNLIPRFYEKSKGDISIDGQSIY | -0.0832
20 | HMTDGLTVPMQGVVIRYKAKKGDKVAVGDAVAVLEAMKMEQNIFANKSGTIKEIYIKEGTTVTPGDVLMSI | -0.0052
21 | HMTDLNDTQIKILELLSADASLSAAKMAGQLGIAGRNVEANIKKLKEKGILIRHGSPKSGYWEIVN | -0.0982
22 | HMTDNSTTTIRNLKIEWLLEEIRNAVRTGVSVDAAVERISNNPFVKPPEDLLNEARIIFLQNAGQI | -0.166
23 | HMTDPVLYEERDDIAIITINRPEKKNTLTDAVIQGIADGIDAATKSADVVAVVLRGAGDTLTAGYDLTA | -0.132
24 | HMTDSDTQDIDVGELRVGHFVFLDLSWIRHPFPLSSFKIQSAEQIKTIRSLGLRRIRYSPGRSGP | -1.18
25 | HMTDSSEILEAALKEAEDAAHEVLNGTFSVQLEPQKAYIRRLQHMLIDRMNLSSTSKGKEPYRSLLVYR | -1.11

Row | Sequence | soluble fraction (log2)
26 | HMTDTDVLSSRLSALSSGRTSAVRLRDGVLSLVLDVGGLSIEARKAMTTAIESTARATPGVEAVRIAET | -0.0141
27 | HMTDTSFPRLGAPEEELLSFLAKWEIDAEDAHYTKFSLYYQSTGKMMRDWKATWRAWKERQSELNAQR | -1.68
28 | HMTDVGLEAAKAAALKHAGLSADQVTGLTAKLDWDDGQRVYEVDFWQGSTEYEYEINADGTVRQYESEAH | 0.228
29 | HMTDVRFIDIPVTEHHPWNGMKVRDLQLPPGTLLVFLSHPGEKNTVPHGETVLRSGDVLVLGATAYTGQ | -0.0558
30 | HMTDVRFISIPIQKEHPWNRKLVSELNLPPGTLLVFLRRTGENIVPNGKTMIQEGDVLVLGASAYR | -0.295
31 | HMTEALEFTVEDLRMAGLVNSSFSRRRRELFSEKLGIGYGNGKSLLKKLNGYGITREEFNGAIQSLSD | -0.747
32 | HMTEIILTARSGRHAVRHRLEGLGYTLTPEELERVHQRFLAVADAKKEVFDEDLHALMADERGT | 0.0349
33 | HMTEKMILKWKEALERMNDDFTTKDWLNVVIHEMGKSERTAYGWLSDMKRSGIIKDLGYGSWLKVLE | -0.738
34 | HMTEKPTREAHILDQLARDGGVLVAALSRELGVSEVTIRSDLRDLEAAGLLQRTHGGAQASSFQTVL | -0.0142
35 | HMTELNNTQRAAVLLLALDEDSAAEVFKHLSAREVQEVSQEMAKLGNISHDQMRQVLDDFYDESEQF | -0.0259
36 | HMTELPLTPRSKRILEMSALEARRLNHSYIGTEHLLMAIIRDGDGVAAKILESLGVNLPNFYTDTVRSIE | -0.121
37 | HMTELSLSEQAYQQLRRMIVRLDFAPGDVLREEALQEALGMSRTPIREALQRLAREHFVTVIPRRGMFVS | -2.28
38 | HMTELVIPDYFSKALAKNKKAKQVFEAFAYSHRKEYLQWITEAKTEETRNKRMATAIEWIAEGKGRNWKYA | -1.69
39 | HMTEPIESVTTIAGRRIPYRLVRSLRARRMRMTIKESQVTVTLPRGVPLGEAERFLQQNAAWLFKQLDKP | -2.22
40 | HMTESIHVGSKVTINNNAKRWATGQNIYSGVKGKTYTVIQMNGSRLLLDKVISWINKGDVHLPGS | -1.64
41 | HMTESIKRDEAIRLNNGRIYTLDAAKIGTNEYEVMLFNPRTGEEIDSAKTSTEADAILQFDRLRRMYHR | 0.1
42 | HMTETELYDEVNRLIGLHLSERDRMILIMRDRDEFEIDAIAARTGLSEGNIRLILSRARRTVREAYRNNI | -3.74
43 | HMTETNSVTINERLTLYRRSRSGRWQARVKLNTGEWHRFSTGTADFEKAKESAHRELHNVGFRAENNLPQ | -0.598
44 | HMTFDWAAYEISEKEIRVMSLVAEGFSNKEIAQELFLSEGTVRNYISNILEKLGLRDRTQLAVHYLKAV | -1.28
45 | HMTFENMFIENSGETLDREFLVENLRGISWQSYDRSVDVLVSRLRGKLGETPNNTRFIKTIHGVGYKFIGE | -0.316
46 | HMTFGENLIRLRRQQGLSQEQLGMRIGVSRQTVSKWELNDTTPEMEKLIALADLFGLSLDELTGRV | -0.115
47 | HMTFNLDVDGDDQVTALGDGLMIIRKLFGATFAGDALTNKAISPDATRTTDEIHAYIEKGITSGVLD | -0.268
48 | HMTFPAILRELLEKHPQTGKRTTLKELGEAVGTRQQSISLYRNGDTQPSPDILVRIAAFFGVSVDYLL | -0.419
49 | HMTFPYTSLKDAPKNMKEIDGVPLTLDQVNQIAKVADSIGVSKEKNGYAIAKSQFKKSHHIENNRWVKNK | 0.0239
50 | HMTFVHTQIEATKEWIISHPLDKHPAVAVVDSAGSIVIGEVDYISKSIVRLRFTAEFSGKAYL | -0.598
